Measured values: article PMC8691648, “Heterophilic and homophilic cadherin interactions in intestinal intermicrovillar links are species dependent” (PLoS Biology, 2021)

Key:
[1] = biological target: mm PCDH24 EC1-2Fc (mouse); assay: SPR; OpenSPR (Nicoya); mm PCDH24 EC1-2Fc immobilised on a Protein A sensor chip (>800 RU); mm CDHR5 EC1-2 injected at 2 to 23.5 uM; 20 mM Tris HCl pH 7.5, 150 mM NaCl, 50 mM KCl, 2 mM CaCl2, 0.5 mM TCEP, 1% BSA; 20 uL/min; kinetic fit, 1:1 model
[2] = biological target: the molecule itself; assay: crystal structure; contacts between copies of one fragment in the crystal (asymmetric unit or symmetry mates); vapor diffusion at 4 °C
[3] = biological target: the molecule itself; assay: bead aggregation assay; homophilic; Protein G Dynabeads coated with one Fc fusion captured from concentrated serum-free medium and washed; 50 mM Tris pH 7.5, 100 mM NaCl, 10 mM KCl, 0.2% BSA, 2 mM CaCl2; 60 min on a depression slide, then rocking 1 to 2 min

For mm CDHR5 EC1-2 (domain or fragment), which Kd [1] is on record?
Its Kd is 16 µM.

B1: hs PCDH24 EC1-2 (mammalian-produced, form II crystal) (domain or fragment, human)
chain: NVAPKFLANMTSVILPEDLPVGAQAFWLVAEDQDNDPLTYGMSGPNAYFFAVTPKTGEVKLASALDYETLYTFKVTISVSDPYIQVQREMLVIVEDRNDNAPVFQNTAFSTSINETLPVGSVVFSVLAVDKDMGSAGMVVYSIEKVIPSTGDSEHLFRILANGSIVLNGSLSYNNKSAFYQLELKACDLGGMYHNTFTIQCSLPVFLSISVVDQPDLDTVPRARDPPVGG
modifications: N-linked glycosylation at N9
notes: protocadherin-24 (PCDH24, also CDHR2), human, repeats EC1-2; DNA cloned with the signal peptide in a CMV vector, protein secreted; the structure includes residues N1 to D218; numbers count on: the mature protein; The range is that of the residues in the structure; The crystallised sample also held mammalian-produced hs CDHR5 EC1-2, which is not in the structure; also called Hs PCDH24 EC1-2 II; …
Does B1 bind [2]?
Result: binds

B2: hs PCDH24 EC1-MAD10Fc (Fc fusion, human)
chain: NVAPKFLANMTSVILPEDLPVGAQAFWLVAEDQDNDPLTYGMSGPNAYFFAVTPKTGEVKLASALDYETLYTFKVTISVSDPYIQVQREMLVIVEDRNDNAPVFQNTAFSTSINETLPVGSVVFSVLAVDKDMGSAGMVVYSIEKVIPSTGDSEHLFRILANGSIVLNGSLSYNNKSAFYQLELKACDLGGMYHNTFTIQCSLPVFLSISVVDQPDLDPQFVREFYSASVAEDAAKGTSVLTVEAVDGDKGINDPVIYSISYSTRPGWFDIGADGVIRVNGSLDREQLLEADEEVQLQVTATETHLNIYGQEAKVSIWVTVRVMDVNDHKPEFYNCSLPACTFTPEEAQVNFTGYVDEHASPRIPIDDLTMVVYDPDKGSNGTFLLSLGGPDAEAFSVSPERAVGSASVQVLVRVSALVDYERQTAMAVQVVATDSVSQNFSVAMVTIHLRDINDHRPTFPQSLYVLTVPEHSATGSVVTDSIHATDPDTGAWGQITYSLLPGNGADLFQVDPVSGTVTVRNGELLDRESQAVYYLTLQATDGGNLSSSTTLQIHLLDINDNAPVVSGSYNIFVQEEEGNVSVTIQAHDNDEPGTNNSRLLFNLLPGPYSHNFSLDPDTGLLRNLGPLDREAIDPALEGRIVLTVLVSDCGEPVLGTKVNVTITVEDINDNLPIFNQSSYNFTVKEEDPGVLVGVVKAWDADQTEANNRISFSLSGSGANYFMIRGLVLGAGWAEGYLRLPPDVSLDYETQPVFNLTVSAENPDPQGGETIVDVCVNVKDVNDNPPTLDVASLRGIRVAENGSQHGQVAVVVASDVDTSAQLEIQLVNILCTKAGVDVGSLCWGWFSVAANGSVYINQSKAIDYEACDLVTLVVRACDLATDPGFQAYSNNGSLLITIEDVNDNAPYFLPENKTFVIIPELVLPNREVASVRARDDDSGNNGVILFSILRVDFISKDGATIPFQGVFSIFTSSEADVFAGSIQPVTSLDSTLQGTYQVTVQARDRPSLGPFLEATTTLNLFTVDQSYRSRLQFSTPKEEVGANRQAINAALTQATRTTVYIVDIQDIDSAARARPHSYLDAYFVFPNGSALTLDELSVMIRNDQDSLTQLLQLGLVVLGSQESQESDLSKQLISTVPRARDPPV
notes: protocadherin-24 (PCDH24, also CDHR2), human, full-length extracellular domain EC1 to MAD10; DNA cloned with the signal peptide, protein secreted; numbers count on: the mature protein; linker between the PCDH24 fragment and the Fc tag in the CMV vector; also called Fc-tagged full-length hs PCDH24 extracellular domain; human protocadherin-24; not shown: Fc, C-terminal, kept
Does B2 bind [3]?
Result: binds
